Results reported in patent publication US20090325867A1, “RECEPTOR-SPECIFIC TUMOUR NECROSIS FACTOR-RELATED APOPTOSIS-INDUCING LIGAND (TRAIL) VARIANTS” (MEDICAL RESEARCH COUNCIL, priority 2005, published 2009).

Target: T1, TRAIL-R1 (DR4) (Homo sapiens, UniProt O00220)
T1 construct: Ramos and Jurkat cells, which signal predominantly through TRAIL-R1 and TRAIL-R2, respectively; endogenous in cells; host or cells: Ramos cells (Jurkat cells as TRAIL-R2 comparison)
Experiment: TRAIL-R1 selective apoptotic signalling (Ramos versus Jurkat cells)
Type: cell-based
Details: from apoptosis in Ramos (TRAIL-R1) and Jurkat (TRAIL-R2) cells
Excerpt: Another test involves the assay of the effect in R1- (DR4-) only cells. This is the preferred test for DR4 selectivity as discussed herein. Preferably the ligand is applied to an R1-only signalling cell. Preferably the cell is a Ramos cell. Preferably the read-out is functional activity, preferably death-inducing activity (apoptosis). This is crucial to the test—mere binding is not as robust an indicator as functional induction of death. Thus, preferably a DR4 selective ligand according to the present invention induces death in a DR4 only signalling cell, such as a Ramos cell.
Ramos, an Epstein-Barr virus-negative Burkitt's lymphoma cell line, and Jurkat T cells (clone E6-1) were cultured as described (MacFarlane et al (2005 Cell Death and Differentiation vol 12 pages 773-782)). Blood samples were obtained from CLL patients, with patient consent and local ethical committee approval and CLL cells purified as described (MacFarlane et al (2002 Oncogene 21, 6809-6818). Cells were incubated for 16 h with depsipeptide (10 nM), provided by Dr. E. Sausville (NCI, USA). Cells were then cultured for a further 6 h with either HGSETR1 or HGS-ETR2, agonistic mAbs to TRAIL-R1 or -R2, respectively (Human Genome Sciences, Rockville, Md.), His-TRAIL-LE (a recombinant TRAIL with low endotoxin—Alexis Corporation, Nottingham, UK), His-TRAIL, a similar form of human recombinant TRAIL (MacFarlane et al (1997 J Biol Chem 272, 25417-25420)) but not further purified to reduce endotoxin levels or a mutant form of His-TRAIL as described (MacFarlane et al., 2005 ibid.). Cell lines were also pre-incubated for 30 min with a TRAIL-R1 blocking Ab and a TRAIL-R2 neutralizing Ab from Alexis and R&D systems, respectively, prior to exposure to TRAIL. Freshly isolated cells from patients with MCL were isolated, purified and incubated with different forms of TRAIL as described above for CLL cells. Samples were either analyzed immediately for apoptosis or stored at −80° C. for subsequent Western blotting. Other methods and reagents were as described (Inoue (2004 Cell Death Differ 11 Suppl 2, S193-206); MacFarlane et al., 2005 ibid).
Apoptosis was quantified by phosphatidylserine (PS) externalization in the presence of propidium iodide as described (MacFarlane et al., 2002 ibid.). Samples for Western blot analysis were prepared and caspase processing detected as described (Inoue et al., 2004 ibid.; MacFarlane et al., 2005 ibid.).
Referring to FIG. 4: Ramos cells (A) and Jurkat cells (B) were cultured with increasing concentrations of Arg191Leu or Asn199Val single mutants of His-TRAIL ([…]) or His-TRAIL (500 ng/ml), ETR1 or ETR2 (1000 ng/ml) for 4 h. Apoptosis was quantified by measuring the % PS+ cells and results shown in FIG. 4 are the Mean±SEM of three independent experiments. Thus the biological importance TRAIL residues R191 and N199 in TRAIL-R1 selectivity is shown.

B1: TRAIL.R1-5: 6His TRAIL 95-281 with 193Ser, 199Val, 201Arg, 213Trp and 215Asp (protein)
chain: TSEETISTVQEKQQNISPLVRERGPQRVAAHITGTRGRSNTLSSPNSKNEKALGRKINSWESSRSGHSFLSNLHLRNGELVIHEKGFYYIYSQTYFRFSEEIKEVTRNDKQMVQYIYKWTDYPDPILLMKSARNSCWSKDAEYGLYSIYQGGIFELKENDRIFVSVTNEHLIDMDHEASFFGAFLVG
modifications: biotin (site not stated) in the DISC analysis only; not biotinylated in the apoptosis assays
notes: 6His TRAIL 95-281 with 193Ser, 199Val, 201Arg, 213Trp and 215Asp
receptor selectivity of apoptotic activity (in words): R1 selective apoptotic activity
